Test results reported in doi:10.1101/2020.01.27.921122 (bioRxiv, 2020).
Where “and” joins values, the source holds several entries; their conditions need not be identical. Equal values may be shown once.

Target: T1, recombinant human Apaf-1(1-591AA)-His (human, UniProt O14727 1-591)
T1 sequence (looked up): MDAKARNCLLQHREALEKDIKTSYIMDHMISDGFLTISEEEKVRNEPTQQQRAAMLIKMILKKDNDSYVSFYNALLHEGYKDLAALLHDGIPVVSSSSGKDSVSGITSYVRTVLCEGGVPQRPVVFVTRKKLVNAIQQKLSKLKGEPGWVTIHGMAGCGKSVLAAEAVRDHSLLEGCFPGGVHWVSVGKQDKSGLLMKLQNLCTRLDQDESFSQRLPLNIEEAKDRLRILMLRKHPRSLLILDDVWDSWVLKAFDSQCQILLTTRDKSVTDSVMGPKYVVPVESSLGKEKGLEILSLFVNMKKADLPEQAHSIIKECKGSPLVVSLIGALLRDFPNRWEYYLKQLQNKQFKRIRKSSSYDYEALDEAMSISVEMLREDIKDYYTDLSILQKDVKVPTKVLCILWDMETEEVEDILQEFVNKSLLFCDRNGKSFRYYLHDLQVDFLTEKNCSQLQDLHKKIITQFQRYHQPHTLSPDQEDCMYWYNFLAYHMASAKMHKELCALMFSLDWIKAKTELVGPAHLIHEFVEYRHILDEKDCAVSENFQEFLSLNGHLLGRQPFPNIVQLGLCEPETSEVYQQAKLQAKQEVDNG
Assay: SEC

stoichiometry N: 1.8 molecules of caspase-4 (CARD) for each Apaf (1-591) heptamer and 2.1 molecules of caspase-4 (CARD) for each Apaf (1-591) heptamer
B1: recombinant human caspase-4 (CARD)-Fc-HA (Fc fusion, UniProt P49662 1-91, looked up)
chain: MAEGNHRKKPLKVLESLGKDFLTGVLDNLVEQNVLNWKEEEKKKYYDAKTEDKVRVMADSMQEKQRMAGQMLLQTFFNIDQISPNKKAHPN
